Values quoted from earlier work, collected in PMC9292820 (British Journal of Clinical Pharmacology, 2021).

How the values were obtained:
angiotensin II (Ang‐II) = details: rats, bolus injection
[1] = system: healthy male participants

Row | Substance | levels of angiotensin II (Ang‐II) (angiotensin II (Ang‐II)) | decrease in pupil/iris ratio (miosis) [1]
1 | opiorphin (QRFSR; Opiorphin; UniProt Q99935 22-26, looked up) | increased levels | 
2 | buprenorphine |  | up to 50%
